Literature values, collected in paper PMC9772450, “Gel-forming antagonist provides a lasting effect on CGRP-induced vasodilation” (Frontiers in Pharmacology, 2022).

B1: eptinezumab: anti-CGRP antibody (antibody, chains of the INN, looked up, V domains shown)
VH: EVQLVESGGGLVQPGGSLRLSCAVSGIDLSGYYMNWVRQAPGKGLEWVGVIGINGATYYASWAKGRFTISRDNSKTTVYLQMNSLRAEDTAVYFCARGDIWGQGTLVTVSS
VL: QVLTQSPSSLSASVGDRVTINCQASQSVYHNTYLAWYQQKPGKVPKQLIYDASTLASGVPSRFSGSGSGTDFTLTISSLQPEDVATYYCLGSYDCTNGDCFVFGGGTKVEIK
B2: erenumab: anti-CGRP receptor antibody (antibody, chains of the INN, looked up, V domains shown)
VH: QVQLVESGGGVVQPGRSLRLSCAASGFTFSSFGMHWVRQAPGKGLEWVAVISFDGSIKYSVDSVKGRFTISRDNSKNTLFLQMNSLRAEDTAVYYCARDRLNYYDSSGYYHYKYYGMAVWGQGTTVTVSS
VL: QSVLTQPPSVSAAPGQKVTISCSGSSSNIGNNYVSWYQQLPGTAPKLLIYDNNKRPSGIPDRFSGSKSGTSTTLGITGLQTGDEADYYCGTWDSRLSAVVFGGGTKLTVL
B3: galcanezumab: anti-CGRP antibody (antibody, chains of the INN, looked up, V domains shown)
VH: QVQLVQSGAEVKKPGSSVKVSCKASGYTFGNYWMQWVRQAPGQGLEWMGAIYEGTGKTVYIQKFADRVTITADKSTSTAYMELSSLRSEDTAVYYCARLSDYVSGFGYWGQGTTVTVSS
VL: DIQMTQSPSSLSASVGDRVTITCRASKDISKYLNWYQQKPGKAPKLLIYYTSGYHSGVPSRFSGSGSGTDFTLTISSLQPEDFATYYCQQGDALPPTFGGGTKVEIK

Legend:
[1] = system: migraine; conditions: 31% at baseline; 40–50% in the placebo group; ref Cady et al., 2022
Excerpt: Migraine is a common complex neurovascular disorder that is manifested as episodic and predominantly unilateral throbbing headache with hypersensitivity to light, sound, and movement ([Erdener and Dalkara, 2014]; [Schuster and Rapoport, 2016]). According to the World Health Organization, 324 million people worldwide suffer from incapacitating migraine in 2008. In ∼ one-third of patients, migraine headaches are accompanied by an aura involving neurological symptoms such as transient visual, sensory, or motor disturbances ([Goadsby et al., 2002]). In the US, it was reported that 15% of Americans ...

[2] = system: capsaicin-induced dermal blood flow; conditions: in patients; ref Vu et al., 2017
Excerpt: It is known that anti-CGRP gepants could occupy a binding site close to the interface of the N-terminal domains of CLR and RAMP1, and act by allosteric regulation ([Miller et al., 2010]). Although the gepants compounds have low IC50 values in receptor activation assays in vitro, it is well documented that gepants need high concentrations to bloc ...

[3] = antibodies; ref https://go.drugbank.com/drugs

Molecule	Proportion of patients with moderate/maximal optimization at week four [1] [%]	Concentration required for 50% inhibition of capsaicin-induced dermal blood flow [2] [mg/L]	Concentration required for 99% inhibition of capsaicin-induced dermal blood flow [2] [mg/L]	Volume of distribution [3] [L]
B1	58			
B2		0.255	1.134	3.86
B3				7.3
